Experimental data: the supplement of paper PMC11316812
± gives the standard deviation of the averaged measurements.

Experiments:
MCF7 = assay: percentage of EdU-negative (G0-arrested) nuclei per well, 72 h; higher = more G0 arrest; details: reference: sequence is the full UniProt precursor, the tested protein was the secreted form or ectodomain
hTERT-HMEC = assay: as above; details: reference: sequence is the full UniProt precursor, the tested protein was the secreted form or ectodomain
[1] = protein concentration 0.03125 µM
[2] = protein concentration 0.3125 µM
[3] = protein concentration 0.0351429 µM
[4] = protein concentration 0.351429 µM
[5] = protein concentration 0.0225 µM
[6] = protein concentration 0.0107825 µM
[7] = protein concentration 0.107825 µM
[8] = protein concentration 0.019925 µM
[9] = protein concentration 0.19925 µM
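Also: secreted proteins added to cultured cells, EdU pulse at the end, nuclei found by Hoechst imaging, EdU status from nuclear versus surrounding ring intensity ratio, PBS as neutral control.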

In the case of “MTDRQTDTAPSPSYHLLPGRRRTVDAAASRGQGPEPAPGGGVEGVGARGVALKLFVQLLGCSRFGGAVVRAGEAEPSGAARSASSGREEPQPEEGEEEEEKEEERGPQWRLGARKPGSWTGEAAVCADSAPAARAPQALARASGRGGRVARRGAEESGPPHSPSRRGSASRAGPGRASETMNFLLSWVHWSLALLLYLHHAKWSQAAPMAEGGGQNHHEVVKFMDVYQRSYCHPIETLVDIFQEYPDEIEYIFKPSCVPLMRCGGCCNDEGLECVPTEESNITMQIMRIKPHQGQHIGEMSFLQHNKCECRPKKDRARQEKKSVRGKGKGQKRKRKKSRYKSWSVPCGPCSERRKHLFVQDPQTCKCSCKNTDSRCKARQLELNERTCRCDKPRR”, the “percentage of EdU-negative” value (MCF7; [1]) is reported as 27 ± 1.3%, the “percentage of EdU-negative” value (MCF7; [2]) is reported as 25.1 ± 0.32% and the “percentage of EdU-negative” value (hTERT-HMEC; [1]) is reported as 5.12 ± 1.2%. The “percentage of EdU-negative” value (hTERT-HMEC; [2]) was 5.48 ± 0.89%.

With “MTGDCMPVLVLMAAVLTVTGAVPVARLRGALPDARGCHIAQFKSLSPQELQAFKRAKDALEESLLLKDCKCRSRLFPRTWDLRQLQVRERPVALEAELALTLKVLEATADTDPALGDVLDQPLHTLHHILSQLRACIQPQPTAGPRTRGRLHHWLHRLQEAPKKESPGCLEASVTFNLFRLLTRDLNCVASGDLCV [Q8IZI9]” the “percentage of EdU-negative” value (MCF7; [3]) was 24 ± 2.3%, the “percentage of EdU-negative” value (MCF7; [4]) was 28.6 ± 4% and the “percentage of EdU-negative” value (hTERT-HMEC; [3]) was 6.75 ± 0.89%. The “percentage of EdU-negative” value (hTERT-HMEC; [4]) was 10.9 ± 2.5%.

With “MTGLCGYSAPDMRGLRLIMIPVELLLCYLLLHPVDATSYGKQTNVLMHFPLSLESQTPSSDPLSCQFLHPKSLPGFSHMAPLPKFLVSLALRNALEEAGCQADVWALQLQLYRQGGVNATQVLIQHLRGLQKGRSTERNVSVEALASALQLLAREQQSTGRVGRSLPTEDCENEKEQAVHNVVQLLPGVGTFYNLGTALYYATQNCLGKARERGRDGAIDLGYDLLMTMAGMSGGPMGLAISAALKPALRSGVQQLIQYYQDQKDANISQPETTKEGLRAISDVSDLEETTTLASFISEVVSSAPYWGWAIIKSYDLDPGAGSLEI” the “percentage of EdU-negative” value (MCF7; [5]) was 26.5 ± 0.29%, the “percentage of EdU-negative” value (MCF7; protein concentration 0.225 µM) was 30.7 ± 0.48% and the “percentage of EdU-negative” value (hTERT-HMEC; [5]) was 5.166 ± 0.011%. The “percentage of EdU-negative” value (hTERT-HMEC; protein concentration 0.225 µM) was 19.7 ± 0.93%.

For “MTILFLTMVISYFGCMKAAPMKEANIRGQGGLAYPGVRTHGTLESVNGPKAGSRGLTSLADTFEHVIEELLDEDQKVRPNEENNKDADLYTSRVMLSSQVPLEPPLLFLLEEYKNYLDAANMSMRVRRHSDPARRGELSVCDSISEWVTAADKKTAVDMSGGTVTVLEKVPVSKGQLKQYFYETKCNPMGYTKEGCRGIDKRHWNSQCRTTQSYVRALTMDSKKRIGWRFIRIDTSCVCTLTIKRGR”, the “percentage of EdU-negative” value (MCF7; [6]) was 26.6 ± 0.45%, the “percentage of EdU-negative” value (MCF7; [7]) was 28.7 ± 1.2% and the “percentage of EdU-negative” value (hTERT-HMEC; [6]) was 5.167 ± 0.044%. The “percentage of EdU-negative” value (hTERT-HMEC; [7]) was 7.06 ± 0.31%.

In the case of “MTILGTTFGMVFSLLQVVSGESGYAQNGDLEDAELDDYSFSCYSQLEVNGSQHSLTCAFEDPDVNITNLEFEICGALVEVKCLNFRKLQEIYFIETKKFLLIGKSNICVKVGEKSLTCKKIDLTTIVKPEAPFDLSVVYREGANDFVVTFNTSHLQKKYVKVLMHDVAYRQEKDENKWTHVNLSSTKLTLLQRKLQPAAMYEIKVRSIPDHYFKGFWSEWSPSYYFRTPEINNSSGEMDPILLTISILSFFSVALLVILACVLWKKRIKPIVWPSLPDHKKTLEHLCKKPRKNLNVSFNPESFLDCQIHRVDDIQARDEVEGFLQDTFPQQLEESEKQRLGGDVQSPNCPSEDVVITPESFGRDSSLTCLAGNVSACDAPILSSSRSLDCRESGKNGPHVYQDLLLSLGTTNSTLPPPFSLQSGILTLNPVAQGQPILTSLGSNQEEAYVTMSSFYQNQ”, the “percentage of EdU-negative” value (MCF7; [8]) is reported as 28.1 ± 1.4%, the “percentage of EdU-negative” value (MCF7; [9]) is reported as 27.6 ± 2.4% and the “percentage of EdU-negative” value (hTERT-HMEC; [8]) is reported as 5.3 ± 0.72%. The “percentage of EdU-negative” value (hTERT-HMEC; [9]) was 5.96 ± 0.062%.

In the case of “MTLFPVLLFLVAGLLPSFPANEDKDPAFTALLTTQTQVQREIVNKHNELRRAVSPPARNMLKMEWNKEAAANAQKWANQCNYRHSNPKDRMTSLKCGENLYMSSASSSWSQAIQSWFDEYNDFDFGVGPKTPNAVVGHYTQVVWYSSYLVGCGNAYCPNQKVLKYYYVCQYCPAGNWANRLYVPYEQGAPCASCPDNCDDGLCTNGCKYEDLYSNCKSLKLTLTCKHQLVRDSCKASCNCSNSIY”, the “percentage of EdU-negative” value (MCF7; [5]) is reported as 24.2 ± 0.4%, the “percentage of EdU-negative” value (MCF7; protein concentration 0.225 µM) is reported as 27.5 ± 3% and the “percentage of EdU-negative” value (hTERT-HMEC; [5]) is reported as 4.68 ± 0.23%. For the same sequence, the “percentage of EdU-negative” value (hTERT-HMEC; protein concentration 0.225 µM) was 4.83 ± 0.81%.

In the case of “MTLILTSLLFFGLSLGPRTRVQAENLLKPILWAEPGPVITWHNPVTIWCQGTLEAQGYRLDKEGNSMSRHILKTLESENKVKLSIPSMMWEHAGRYHCYYQSPAGWSEPSDPLELVVTAYSRPTLSALPSPVVTSGVNVTLRCASRLGLGRFTLIEEGDHRLSWTLNSHQHNHGKFQALFPMGPLTFSNRGTFRCYGYENNTPYVWSEPSDPLQLLVSGVSRKPSLLTLQGPVVTPGENLTLQCGSDVGYIRYTLYKEGADGLPQRPGRQPQAGLSQANFTLSPVSRSYGGQYRCYGAHNVSSEWSAPSDPLDILIAGQISDRPSLSVQPGPTVTSGEKVTLLCQSWDPMFTFLLTKEGAAHPPLRLRSMYGAHKYQAEFPMSPVTSAHAGTYRCYGSRSSNPYLLSHPSEPLELVVSGATETLNPAQKKSDSKTAPHLQDYTVENLIRMGVAGLVLLFLGILLFEAQHSQRSPPRCSQEANSRKDNAPFRVVEPWEQI”, the “percentage of EdU-negative” value (MCF7; [5]) is reported as 28.3 ± 0.36%, the “percentage of EdU-negative” value (MCF7; protein concentration 0.225 µM) is reported as 29 ± 2.8% and the “percentage of EdU-negative” value (hTERT-HMEC; [5]) is reported as 4.68 ± 0.17%. The “percentage of EdU-negative” value (hTERT-HMEC; protein concentration 0.225 µM) was 5.06 ± 0.98%.
